We go through 60 molecules from US20160347808A1 (IMMATICS BIOTECHNOLOGIES, published 2016).

The target of this test is T1, HLA-A*02:01 (peptide-receptive MHC class I monomer from UV-ligand exchange) (human).
T1 construct: Monomers were captured on streptavidin-coated plates
Kind of test: UV-exchange ELISA (anti-b2m); exchange yield grade: + >=10%, ++ >=20%, +++ >=50%, ++++ >=75%. The text has this:
Candidate peptides for T cell based therapies according to the present invention were further tested for their MHC binding capacity (affinity). The individual peptide-MHC complexes were produced by UV-ligand exchange, where a UV-sensitive peptide is cleaved upon UV-irradiation, and exchanged with the peptide of interest as analyzed. Only peptide candidates that can effectively bind and stabilize the peptide-receptive MHC molecules prevent dissociation of the MHC complexes. To determine the yield of the exchange reaction, an ELISA was performed based on the detection of the light chain (β2m) of stabilized MHC complexes. The assay was performed as generally described in Rodenko et al. (Rodenko et al., 2006).
96 well MAXISorp plates (NUNC) were coated over night with 2 ug/ml streptavidin in PBS at room temperature, washed 4× and blocked for 1 h at 37° C. in 2% BSA containing blocking buffer. Refolded HLA-A*02:01/MLA-001 monomers served as standards, covering the range of 15-500 ng/ml. Peptide-MHC monomers of the UV-exchange reaction were diluted 100 fold in blocking buffer. Samples were incubated for 1 h at 37° C., washed four times, incubated with 2 ug/ml HRP conjugated anti-β2m for 1 h at 37° C., washed again and detected with TMB solution that is stopped with […]. Absorption was measured at 450 nm. Candidate peptides that show a high exchange yield (preferably higher than 50%, most preferred higher than 75%) are generally preferred for a generation and production of antibodies or fragments thereof, and/or T cell receptors or fragments thereof, as they show sufficient avidity to the MHC molecules and prevent dissociation of the MHC complexes.
In general terms: An ELISA detects its analyte on a solid surface through an enzyme-linked reagent.
For KLSDVWKEL [peptide KLSDVWKEL (SEQ ID NO 143)], the peptide exchange yield was 50 to 75%. In the case of RMYNKIFAI [peptide RMYNKIFAI (SEQ ID NO 10)], the peptide exchange yield lay in the range of 50 to 75%. As for KLLDVVHPA [peptide KLLDVVHPA (SEQ ID NO 131)], the peptide exchange yield lay in the range of 20 to 50%. MLDDRAYLV [peptide MLDDRAYLV (SEQ ID NO 128)]: the peptide exchange yield fell in the range of 20 to 50%.

Take ILFSEDSTKLFV [peptide ILFSEDSTKLFV (SEQ ID NO 153)]: the peptide exchange yield was in the range of 50 to 75%. For QLTEIKPLL [peptide QLTEIKPLL (SEQ ID NO 137)] the value was 50 to 75%; for ALSDETWGL [peptide ALSDETWGL (SEQ ID NO 146)], 20 to 50%. With RTFEKIEEV [peptide RTFEKIEEV (SEQ ID NO 133)] the figure was 20 to 50%; with VLYEGVDEV [peptide VLYEGVDEV (SEQ ID NO 120)], 20 to 50%. On to SLFDVSHML [peptide SLFDVSHML (SEQ ID NO 115)], for which the peptide exchange yield lay within 50 to 75%. Consider LLNEILEQV [peptide LLNEILEQV (SEQ ID NO 140)], for which the peptide exchange yield was 50 to 75%. Consider ALIKQLFEA (also called ZNF-002) [peptide ALIKQLFEA (SEQ ID NO 1)], for which the peptide exchange yield lay within 50 to 75%. Regarding KQFEGTVEI [peptide KQFEGTVEI (SEQ ID NO 138)], the peptide exchange yield was 50 to 75%. Take RLAELTVDEFLA [peptide RLAELTVDEFLA (SEQ ID NO 127)]: the peptide exchange yield lay within 50 to 75%. KLQEEIPVL [peptide KLQEEIPVL (SEQ ID NO 135)]: the peptide exchange yield fell in the range of 20 to 50%. With KLGDFGLLVEL [peptide KLGDFGLLVEL (SEQ ID NO 125)] the figure was no less than 75%; with KLPSETIFVGC [peptide KLPSETIFVGC (SEQ ID NO 154)], 50 to 75%. With FLDKPEDVLL [peptide FLDKPEDVLL (SEQ ID NO 14)] the figure was 20 to 50%.

For the molecule ILYDLQQNL [peptide ILYDLQQNL (SEQ ID NO 113)], the peptide exchange yield was in the range of 20 to 50%. With ALVQGILERV [peptide ALVQGILERV (SEQ ID NO 12)] the figure was 50 to 75%; with SLISEKILL [peptide SLISEKILL (SEQ ID NO 106)], 50 to 75%. KLGQVLIYL [peptide KLGQVLIYL (SEQ ID NO 112)]: the peptide exchange yield fell in the range of 20 to 50%. For SLMGMVLKL [peptide SLMGMVLKL (SEQ ID NO 122)], the peptide exchange yield fell in the range of 50 to 75%. For the molecule LQLDKEFQL [peptide LQLDKEFQL (SEQ ID NO 15)], the peptide exchange yield is 50 to 75%. As for RLLGEEVVRV [peptide RLLGEEVVRV (SEQ ID NO 155)], the peptide exchange yield is 50 to 75%.

For SAQGSDVSLTACKV [peptide SAQGSDVSLTACKV (SEQ ID NO 151)], the peptide exchange yield was 50 to 75%.

As to SLIERDLKL [peptide SLIERDLKL (SEQ ID NO 157)], the peptide exchange yield was in the range of 50 to 75%. For VLIDVLKEL [peptide VLIDVLKEL (SEQ ID NO 129)] the value was 50 to 75%; for LLNDRIWLA [peptide LLNDRIWLA (SEQ ID NO 144)], 50 to 75%; for LLLEVVKQV [peptide LLLEVVKQV (SEQ ID NO 145)], 50 to 75%. Regarding SLAELVPGVGGI [peptide SLAELVPGVGGI (SEQ ID NO 108)], the peptide exchange yield is 50 to 75%.

As for TLQPVDNSTISL [peptide TLQPVDNSTISL (SEQ ID NO 117)], the peptide exchange yield is 20 to 50%. For SLAPNIISQL [peptide SLAPNIISQL (SEQ ID NO 121)] the value was 50 to 75%; for YQFDKVGILTL [peptide YQFDKVGILTL (SEQ ID NO 149)], 50 to 75%; for KTLERSYLL [peptide KTLERSYLL (SEQ ID NO 123)], 20 to 50%. For KLFDIFSQQV [peptide KLFDIFSQQV (SEQ ID NO 136)] the value was 50 to 75%. Regarding LVYQFVHPI [peptide LVYQFVHPI (SEQ ID NO 116)], the peptide exchange yield was 20 to 50%. In the case of KLLAVIHEL (also called RAD54B-002) [peptide KLLAVIHEL (SEQ ID NO 152)], the peptide exchange yield was in the range of 20 to 50%. Turning to AVIEHLERL [peptide AVIEHLERL (SEQ ID NO 141)], the peptide exchange yield was no less than 75%. For ILLTIKDDTIYL [peptide ILLTIKDDTIYL (SEQ ID NO 104)] the value was 50 to 75%.

Consider ILYQTVTGL [peptide ILYQTVTGL (SEQ ID NO 119)], for which the peptide exchange yield is 20 to 50%.

As to YALDLSTFL [peptide YALDLSTFL (SEQ ID NO 105)], the peptide exchange yield is 50 to 75%.

GVAGGSILKGV [peptide GVAGGSILKGV (SEQ ID NO 134)]: the peptide exchange yield was no less than 75%. Take FLLAEDTKV [peptide FLLAEDTKV (SEQ ID NO 13)]: the peptide exchange yield is 50 to 75%. For YLFEKTFNM [peptide YLFEKTFNM (SEQ ID NO 11)], the peptide exchange yield lay within 50 to 75%. For the molecule ALLGGGPYML [peptide ALLGGGPYML (SEQ ID NO 107)], the peptide exchange yield was in the range of 50 to 75%. For ALDGDQMEL [peptide ALDGDQMEL (SEQ ID NO 109)] the value was 20 to 50%. With SLMMTIINL [peptide SLMMTIINL (SEQ ID NO 156)], the peptide exchange yield was no less than 75%. Turning to LLADLKTMV [peptide LLADLKTMV (SEQ ID NO 118)], the peptide exchange yield fell in the range of 50 to 75%. With RLLENMTEVV [peptide RLLENMTEVV (SEQ ID NO 148)] the figure was 50 to 75%. On to ALLNAILHSA [peptide ALLNAILHSA (SEQ ID NO 132)], for which the peptide exchange yield fell in the range of 50 to 75%. Take LLGELPRLLLL [peptide LLGELPRLLLL (SEQ ID NO 110)]: the peptide exchange yield lay in the range of 50 to 75%. As for TLAKYLMEL [peptide TLAKYLMEL (SEQ ID NO 126)], the peptide exchange yield fell in the range of 50 to 75%. Take VLLNEILEQV [peptide VLLNEILEQV (SEQ ID NO 139)]: the peptide exchange yield is 50 to 75%. For RLADLEALKV [peptide RLADLEALKV (SEQ ID NO 150)] the value was 50 to 75%. RVLPPSALQSV [peptide RVLPPSALQSV (SEQ ID NO 124)]: the peptide exchange yield is 50 to 75%. As to TAVGHALVL [peptide TAVGHALVL (SEQ ID NO 114)], the peptide exchange yield was in the range of 10 to 20%.

With GLGGSQLIDTHL [peptide GLGGSQLIDTHL (SEQ ID NO 130)], the peptide exchange yield is 20 to 50%. On to SLVQRVETI (also called ECT2-001) [peptide SLVQRVETI (SEQ ID NO 142)], for which the peptide exchange yield is 50 to 75%. For the molecule TLTELRAFL [peptide TLTELRAFL (SEQ ID NO 147)], the peptide exchange yield was no less than 75%.
